Measured values: patent US20240247066A1 (published 2024)
One block for each binder: values may come before it.

Experiments:
NY-ESO1/A2 = NY-ESO1/A2 (;human, UniProt A*02:01, biotin on the biotinylation tag (BirA)); assay: SPR
Trp2/H-2Kb = Trp2/H-2Kb (;mouse, biotin on the biotinylation tag (BirA)); assay: SPR

- Kd (NY-ESO1/A2): 2 nM
B1: N5 (scFv)
chain: EVQLLESGGGLVQPGGSLRLSCAASGFTFSTYQMSWVRQAPGKGLEWVSGIVSSGGSTAYADSVKGRFTISRDNSKNTLYLQMNSLRAEDTAVYYCAGELLPFYGMDYWGQGTTVTVSQSELTQPRSVSGSPGQSVTISCTGTLRDVGGYNYVSWYQQHPGKAPKLIIHDVIERSSGVPDRFSGSKSGNTASLTISGLQAEDEADYYCWSAAMAYGVFGTGTDVTVL

- Kd (Trp2/H-2Kb): 2.5 nM
B2: IgG2a #13 (antibody, V domains shown)
VH: EVLLQQSGPELVKPGASVKIPCKASGYTFTDYYMDWVKQSHGKSLEWIGLINPNNGGTVYNQKFKGKATLTVDKSSSAAYMEVRSLTSEDTAVYYCARKPYTGHPAWFAYWGQGTLVTVSA
VL: DIQVTQSSSSFSVSLGDRVTITCKASEDIYNRLAWYQQKPGNAPRLLISGATSLETGVPDRFSGSGSRKDYTLIITSLQTEDVATYYCQQYYAFPLTFGAGTKLELK
